# How the values were obtained:
# [1] = molecular target: T1, CLDN18.2 endogenously expressed on SNU620 gastric cancer cells (UniProt P56856-2 1-261, limits assumed); experiment: FACS Exp. 3, SNU620 cells
# T1 construct: whole, on cells; also called SU620
# [2] = molecular target: T2, human Claudin 18.2 (CLDN18.2) (human, UniProt P56856-2 1-261); experiment: FACS Exp. 1, MFI ratio CHO-18.2 over CHO-18.1
# T2 construct: whole, on cells; recombinantly expressed on CHO, HEK293, NCI-N87, NUGC4 or PANC-1 cells; also called CHO-CLDN18.2
# [3] = molecular target: T2, human Claudin 18.2 (CLDN18.2); experiment: FACS on CHO-CLDN18.2 cells
# [4] = molecular target: T2, human Claudin 18.2 (CLDN18.2); experiment: cell-based or functional assay
# [5] = molecular target: T2, human Claudin 18.2 (CLDN18.2); experiment: cell-based or functional assay; remark: listed apart in the source
Binder,MFI_SNU620 (@30 ug/ml) [1],MFI_CHO-18.2/CHO-18.1 (@30 ug/ml) [2],EC50 [3],other results
"hz282-2 (antibody, V domains shown, humanized IgG; constant regions not specified) VH: QVQLQESGPGLVKPSETLSLTCTVSGFSLTSYNVYWIRQPPGKGLEWIGVIWNTGATRYNSALKSRVTISKDTSKNQVSLKLSSVTAADTAVYYCARDSAMPAIPFAYWGQGTLVTVSS VL: DIVMTQSPDSLAVSLGERATINCKSSQSLFGSVRQKNYLAWYQQKPGQPPKLLIYLASTRESGVPDRFSGSGSGTDFTLTISSLQAEDVAVYYCQQYYDIPWTFGGGTKVEIK",1060 MFI,521,,
"hz282-6 (antibody, V domains shown, humanized IgG; constant regions not specified) VH: QVQLQESGPGLVKPSETLSLTCTVSGFSLTSYNVYWIRQPPGKGLEWIGVIWNTGATRYNSALKSRVTISKDTSKNQVSLKLSSVTAADTAVYYCARDSAMPAIPFAYWGQGTLVTVSS VL: DIVMTQSPDSLAVSLGERATINCKSSQSLFGSVRQKNYLAWYQQKPGQSPKLLIYLASTRESGVPDRFSGSGSGTDFTLTISSLQAEDVAKYYCQQYYDIPWTFGGGTKVEIK",1290 MFI,521,,
"hz282-7 (antibody, V domains shown, humanized IgG; constant regions not specified) VH: QVQLQESGPGLVKPSETLSLTCTVSGFSLTSYNVYWIRQPPGKGLEWIGVIWNTGATRYNSALKSRVTISKDTSKSQVSLKLSSVTAADTAVYYCARDSAMPAIPFAYWGQGTLVTVSS VL: DIVMTQSPDSLAVSLGERATINCKSSQSLFGSVRQKNYLAWYQQKPGQSPKLLIYLASTRESGVPDRFSGSGSGTDFTLTISSLQAEDVAKYYCQQYYDIPWTFGGGTKVEIK",1250 MFI,624,,
"hz282-18 (antibody, V domains shown, humanized IgG; constant regions not specified) VH: QVQLQESGPGLVKPSETLSLTCTVSGFSLTSYNVYWIRQPPGKGLEWIGVIWNTGATRYNSALKSRVTISKDTSKNQVSLKLSSVTAADTAVYYCARDSAMPAIPFAYWGQGTLVTVSS VL: DIVMTQSPSSLSASVGDRVTINCKSSQSLFGSVRQKNYLAWYQQKPGKSPKLLIYLASTRESGVPDRFSGSGSGTDFTLTISSLQPEDFAKYYCQQYYDIPWTFGGGTKVEIK",1210 MFI,781,,
"hz282-16 (antibody, V domains shown, humanized IgG; constant regions not specified) VH: QVQLQESGPGLVKPSETLSLTCTVAGFSLTSYNVYWIRQPPGKGLEWIGVIWNTGATRYNSALKSRVTISKDTSKSQVSLKLSSVTAADTAVYYCARDSAMPAIPFAYWGQGTLVTVSS VL: DIQMTQSPSSLSASVGDRVTITCKSSQSLFGSVRQKNYLAWYQQKPGKSPKLLIYLASTRESGVPDRFSGSGSGTDFTLTISSLQPEDFAKYYCQQYYDIPWTFGGGTKVEIK",1280 MFI,550,,
"hz282-14 (antibody, V domains shown, humanized IgG; constant regions not specified) VH: QVQLQESGPGLVKPSETLSLTCTVSGFSLTSYNVYWIRQPPGKGLEWIGVIWNTGATRYNSALKSRVTISKDTSKNQVSLKLSSVTAADTAVYYCARDSAMPAIPFAYWGQGTLVTVSS VL: DIQMTQSPSSLSASVGDRVTITCKSSQSLFGSVRQKNYLAWYQQKPGKSPKLLIYLASTRESGVPDRFSGSGSGTDFTLTISSLQPEDFAKYYCQQYYDIPWTFGGGTKVEIK",1220 MFI,798,,
"413H9F8-H1L2 (antibody, V domains shown, humanized IgG; constant regions not specified) VH: EVQLVESGGGLVQPGGSLRLSCAASGFTFSSFGMHWVRQAPGKGLEWVSYISSGSSPIYYVDKLKGRFTISRDNAKNSLYLQMNSLRAEDTAVYYCARAGYAVRNALDYWGQGTLVTVSS VL: DIVMTQSPDSLAVSLGERATINCKSSQSLLNVGNQKNYLAWYQQKPGQPPKLLIYGASTRESGVPDRFSGSGSGTDFTLTISSLQAEDVAVYFCQNDLFYPLTFGGGTKVEIK",,,2.18 nM,
"413H9F8-H4L4 (antibody, V domains shown, humanized IgG; constant regions not specified) VH: EVQLVESGGGLVQPGGSLRLSCAASGFTFSSFGMHWVRQAPGKGLEWVAYISSGSSPIYYVDKLKGRFTVSRDNAKNSLYLQMTSLRAEDTAVYYCARAGYAVRNALDYWGQGTLVTVSS VL: DIVMTQSPDSLAVSLGERATISCKSSQSLLNVGNQKNYLAWYQQKPGQPPKLLIYGASTRESGVPDRFIGSGSGTDFTLTISSLQAEDVAVYFCQNDLFYPLTFGAGTKVEIK",,,2.34 nM,
"413H9F8-H4L1 (antibody, V domains shown, humanized IgG; constant regions not specified) VH: EVQLVESGGGLVQPGGSLRLSCAASGFTFSSFGMHWVRQAPGKGLEWVAYISSGSSPIYYVDKLKGRFTVSRDNAKNSLYLQMTSLRAEDTAVYYCARAGYAVRNALDYWGQGTLVTVSS VL: DIVMTQSPDSLAVSLGERATINCKSSQSLLNVGNQKNYLAWYQQKPGQPPKLLIYGASTRESGVPDRFSGSGSGTDFTLTISSLQAEDVAVYYCQNDLFYPLTFGGGTKVEIK",,,2.69 nM,
"413H9F8-H3L4 (antibody, V domains shown, humanized IgG; constant regions not specified) VH: EVQLVESGGGLVQPGGSLRLSCAASGFTFSSFGMHWVRQAPGKGLEWVAYISSGSSPIYYVDKLKGRFTVSRDNAKNSLYLQMNSLRAEDTAVYYCARAGYAVRNALDYWGQGTLVTVSS VL: DIVMTQSPDSLAVSLGERATISCKSSQSLLNVGNQKNYLAWYQQKPGQPPKLLIYGASTRESGVPDRFIGSGSGTDFTLTISSLQAEDVAVYFCQNDLFYPLTFGAGTKVEIK",,,2.74 nM,"% ADCC @ 6.67 nM, NCI-N87-CLDN18.2, FcR-TANK [4]: 16%; ADCC EC50, NCI-N87-CLDN18.2, FcR-TANK [4]: 0.35 nM; % specific cytotoxicity @ 6.67 nM, NUGC4-CLDN18.2, PBMC [5]: 28.7%; ADCC EC50, NUGC4-CLDN18.2, PBMC [5]: 6.09 nM"
"413H9F8-H3L1 (antibody, V domains shown, humanized IgG; constant regions not specified) VH: EVQLVESGGGLVQPGGSLRLSCAASGFTFSSFGMHWVRQAPGKGLEWVAYISSGSSPIYYVDKLKGRFTVSRDNAKNSLYLQMNSLRAEDTAVYYCARAGYAVRNALDYWGQGTLVTVSS VL: DIVMTQSPDSLAVSLGERATINCKSSQSLLNVGNQKNYLAWYQQKPGQPPKLLIYGASTRESGVPDRFSGSGSGTDFTLTISSLQAEDVAVYYCQNDLFYPLTFGGGTKVEIK",,,2.42 nM,
"413H9F8-H4L3 (antibody, V domains shown, humanized IgG; constant regions not specified) VH: EVQLVESGGGLVQPGGSLRLSCAASGFTFSSFGMHWVRQAPGKGLEWVAYISSGSSPIYYVDKLKGRFTVSRDNAKNSLYLQMTSLRAEDTAVYYCARAGYAVRNALDYWGQGTLVTVSS VL: DIVMTQSPDSLAVSLGERATINCKSSQSLLNVGNQKNYLAWYQQKPGQPPKLLIYGASTRESGVPDRFIGSGSGTDFTLTISSLQAEDVAVYFCQNDLFYPLTFGGGTKVEIK",,,2.62 nM,"% ADCC @ 6.67 nM, NCI-N87-CLDN18.2, FcR-TANK [4]: 15.4%; ADCC EC50, NCI-N87-CLDN18.2, FcR-TANK [4]: 0.47 nM; % specific cytotoxicity @ 6.67 nM, NUGC4-CLDN18.2, PBMC [5]: 27.8%; ADCC EC50, NUGC4-CLDN18.2, PBMC [5]: 7.01 nM"
"413H9F8-H4L2 (antibody, V domains shown, humanized IgG; constant regions not specified) VH: EVQLVESGGGLVQPGGSLRLSCAASGFTFSSFGMHWVRQAPGKGLEWVAYISSGSSPIYYVDKLKGRFTVSRDNAKNSLYLQMTSLRAEDTAVYYCARAGYAVRNALDYWGQGTLVTVSS VL: DIVMTQSPDSLAVSLGERATINCKSSQSLLNVGNQKNYLAWYQQKPGQPPKLLIYGASTRESGVPDRFSGSGSGTDFTLTISSLQAEDVAVYFCQNDLFYPLTFGGGTKVEIK",,,2.45 nM,
"413H9F8-H3L2 (antibody, V domains shown, humanized IgG; constant regions not specified) VH: EVQLVESGGGLVQPGGSLRLSCAASGFTFSSFGMHWVRQAPGKGLEWVAYISSGSSPIYYVDKLKGRFTVSRDNAKNSLYLQMNSLRAEDTAVYYCARAGYAVRNALDYWGQGTLVTVSS VL: DIVMTQSPDSLAVSLGERATINCKSSQSLLNVGNQKNYLAWYQQKPGQPPKLLIYGASTRESGVPDRFSGSGSGTDFTLTISSLQAEDVAVYFCQNDLFYPLTFGGGTKVEIK",,,2.14 nM,
"413H9F8-H2L3 (antibody, V domains shown, humanized IgG; constant regions not specified) VH: EVQLVESGGGLVQPGGSLRLSCAASGFTFSSFGMHWVRQAPGKGLEWVAYISSGSSPIYYVDKLKGRFTISRDNAKNSLYLQMNSLRAEDTAVYYCARAGYAVRNALDYWGQGTLVTVSS VL: DIVMTQSPDSLAVSLGERATINCKSSQSLLNVGNQKNYLAWYQQKPGQPPKLLIYGASTRESGVPDRFIGSGSGTDFTLTISSLQAEDVAVYFCQNDLFYPLTFGGGTKVEIK",,,2.49 nM,
"413H9F8-H1L4 (antibody, V domains shown, humanized IgG; constant regions not specified) VH: EVQLVESGGGLVQPGGSLRLSCAASGFTFSSFGMHWVRQAPGKGLEWVSYISSGSSPIYYVDKLKGRFTISRDNAKNSLYLQMNSLRAEDTAVYYCARAGYAVRNALDYWGQGTLVTVSS VL: DIVMTQSPDSLAVSLGERATISCKSSQSLLNVGNQKNYLAWYQQKPGQPPKLLIYGASTRESGVPDRFIGSGSGTDFTLTISSLQAEDVAVYFCQNDLFYPLTFGAGTKVEIK",,,3.32 nM,
"413H9F8-H2L4 (antibody, V domains shown, humanized IgG; constant regions not specified) VH: EVQLVESGGGLVQPGGSLRLSCAASGFTFSSFGMHWVRQAPGKGLEWVAYISSGSSPIYYVDKLKGRFTISRDNAKNSLYLQMNSLRAEDTAVYYCARAGYAVRNALDYWGQGTLVTVSS VL: DIVMTQSPDSLAVSLGERATISCKSSQSLLNVGNQKNYLAWYQQKPGQPPKLLIYGASTRESGVPDRFIGSGSGTDFTLTISSLQAEDVAVYFCQNDLFYPLTFGAGTKVEIK",,,2.8 nM,
"413H9F8-H3L3 (antibody, V domains shown, humanized IgG; constant regions not specified) VH: EVQLVESGGGLVQPGGSLRLSCAASGFTFSSFGMHWVRQAPGKGLEWVAYISSGSSPIYYVDKLKGRFTVSRDNAKNSLYLQMNSLRAEDTAVYYCARAGYAVRNALDYWGQGTLVTVSS VL: DIVMTQSPDSLAVSLGERATINCKSSQSLLNVGNQKNYLAWYQQKPGQPPKLLIYGASTRESGVPDRFIGSGSGTDFTLTISSLQAEDVAVYFCQNDLFYPLTFGGGTKVEIK",,,2.24 nM,
